The values that follow come from publication PMC9976917.

Some results are limits rather than exact numbers.

Common to all, as to assay: fluorescence polarization
For one data set, the target named is T1, ZNF410 NT (Homo sapiens, UniProt Q86VK4 1-216).
T1 sequence: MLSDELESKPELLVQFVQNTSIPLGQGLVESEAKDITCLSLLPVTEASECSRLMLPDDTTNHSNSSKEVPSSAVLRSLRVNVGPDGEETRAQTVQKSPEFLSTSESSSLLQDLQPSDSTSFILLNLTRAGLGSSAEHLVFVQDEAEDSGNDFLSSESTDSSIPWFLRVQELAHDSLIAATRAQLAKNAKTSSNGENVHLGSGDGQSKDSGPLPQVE

Data set [1] has as its target T2, ZNF410 FL seven S/T-to-D/E (Homo sapiens, UniProt Q86VK4 1-478, S148D;S154D;S155D;S157D;T158E;S160D;S161D).
T2 sequence: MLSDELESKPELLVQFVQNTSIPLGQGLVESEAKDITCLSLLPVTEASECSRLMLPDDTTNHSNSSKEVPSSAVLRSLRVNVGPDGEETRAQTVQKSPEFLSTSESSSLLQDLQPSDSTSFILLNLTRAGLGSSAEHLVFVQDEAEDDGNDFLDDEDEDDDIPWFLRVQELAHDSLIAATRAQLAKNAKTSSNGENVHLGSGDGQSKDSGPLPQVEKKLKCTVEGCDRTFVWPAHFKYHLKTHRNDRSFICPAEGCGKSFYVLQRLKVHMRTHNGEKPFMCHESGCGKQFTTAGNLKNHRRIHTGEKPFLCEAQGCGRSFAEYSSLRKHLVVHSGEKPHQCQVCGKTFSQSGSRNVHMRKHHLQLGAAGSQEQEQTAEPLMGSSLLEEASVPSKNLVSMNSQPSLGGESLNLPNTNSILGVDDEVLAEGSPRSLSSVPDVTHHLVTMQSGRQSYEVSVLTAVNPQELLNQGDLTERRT

The target of a further data set is T3, ZNF410 FL DEAED-to-AAAAA (Homo sapiens, UniProt Q86VK4 1-478, D143A;E144A;E146A;D147A).
T3 sequence: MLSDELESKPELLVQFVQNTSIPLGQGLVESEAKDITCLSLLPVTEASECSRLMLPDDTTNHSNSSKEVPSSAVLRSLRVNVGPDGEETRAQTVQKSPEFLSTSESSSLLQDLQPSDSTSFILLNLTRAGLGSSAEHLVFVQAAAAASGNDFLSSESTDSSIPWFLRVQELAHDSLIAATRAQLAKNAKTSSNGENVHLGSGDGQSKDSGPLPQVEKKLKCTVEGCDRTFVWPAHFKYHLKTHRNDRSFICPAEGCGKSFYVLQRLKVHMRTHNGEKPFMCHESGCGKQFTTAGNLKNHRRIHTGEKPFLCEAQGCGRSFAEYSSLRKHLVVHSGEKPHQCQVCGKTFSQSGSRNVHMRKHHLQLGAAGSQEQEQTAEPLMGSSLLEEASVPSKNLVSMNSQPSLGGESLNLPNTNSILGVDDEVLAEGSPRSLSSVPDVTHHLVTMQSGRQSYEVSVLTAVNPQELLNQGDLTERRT

B1: FAM 17-bp ZNF410 motif duplex (dsDNA)
DNA 1: CACATCCCATAATAATG
DNA 2: CATTATTATGGGATGTG
Take B1: the binding result with ZNF410 NT is on record as “no binding”. Further, the binding signal in data set [1] is > 6 fold lower affinity than wild-type FL; with ZNF410 FL DEAED-to-AAAAA, > 4 fold higher affinity than wild-type FL.
